Experimental findings from patent publication US20180282429A1 (Zymeworks, published 2018) are described below.

The target of assay [1] is T1, recombinant human HER2 (human, UniProt P04626 23-652).
T1 construct: extracellular domain
Nature of the assay: SPR by the protocol of Example 12, sample before SEC, against v10013.
Experimental: (§1) Between 2000 and 4000 RU of anti-human Fc injected at concentration between 5 and 10 μg/ml was immobilized on a CM5 chip using standard amine coupling. […] HER2 dilutions were analyzed in duplicate. Sensograms were fit globally to a 1:1 Langmuir binding model. All experiments were conducted at 25° C.
(§2) The SPR was measured before and after SEC purification.

Assay [2] addresses T1, recombinant human HER2. Nature of the assay: SPR by the protocol of Example 12, sample after SEC, against v10013.
Experimental: as §1, §2

B1: Variant 10014 (antibody, human IgG1, kappa)
heavy: EVQLVESGGGLVQPGGSLRLSCAASGFTFADYTMDWVRQAPGKGLEWVADVNPNSGGSIYNQRFKGRFTLSVDRSKNTLYLQMNSLRAEDTAVYYCARNLGPSFYFDYWGQGTLVTVSSASTKGPSVFPLAPSSKSTSGGTAALGCLVKDYFPEPVTVSWNSGALTSGVHTFPAVLQSSGLYSLSSVVTVPSSSLGTQTYICNVNHKPSNTKVDKKVEPKSCDKTHTCPPCPAPELLGGPSVFLFPPKPKDTLMISRTPEVTCVVVDVSHEDPEVKFNWYVDGVEVHNAKTKPREEQYNSTYRVVSVLTVLHQDWLNGKEYKCKVSNKALPAPIEKTISKAKGQPREPQVYVYPPSRDELTKNQVSLTCLVKGFYPSDIAVEWESNGQPENNYKTTPPVLDSDGSFALVSKLTVDKSRWQQGNVFSCSVMHEALHNHYTQKSLSLSPG
light: not shown
Fc: not shown
notes: also called v10014
Turning to B1, the figures for the “Fold wrt WT (KD(WT)/KD(mut))” value with recombinant human HER2 [1] and in the assay with recombinant human HER2 [2] were 8.1 fold and 7 fold, respectively.
